Results from paper PMC2635961.

Molecular target: each recombinant exocyst subunit
Experiment: pull-down; MBP or MBP-tagged proteins immobilised on amylose resin; equimolar purified Sec10(145–827) (1 µM) added; 10 mM HEPES pH 7, 100 mM NaCl, 0.1% NP-40, 1 mM DTT; 1 h at 4°C; three washes; Western blot with α-His5 and α-MBP

B1: Sec10(145–827) (domain or fragment)
chain: GDKLETAIKKKQNYIQSVELIRRYNDFYSMGKSDIVEQLRLSKNWKLNLKSVKLMKNLLILSSKLETSSIPKTINTKLVIEKYSEMMENELLENFNSAYRENNFTKLNEIAIILNNFNGGVNVIQSFINQHDYFIDTKQIDLENEFENVFIKNVKFKEQLIDFENHSVIIETSMQNLINDVETVIKNESKIVKRVFEEKATHVIQLFIQRVFAQKIEPRFEVLLRNSLSISNLAYVRILHGLFTLFGKFTKSLIDYFQLLEIDDSNQILSTTLEQCFADLFSHYLYDRSKYFGIEKRSLEAILVDMTSKFTVNYDKEINKRVLLDKYKEKLSTNVDAFMHSPRGNTHSRQDSTSRSKLSQFNSFLKTHLDKDHLSLNRTNTLSDSFNNSSSSTQYDVANNSSSLVNSSFTASDIDNSPNSPANYSLNDVDSMLKCVVESTARVMELIPNKAHLYILEILKIMFLGIVDSYMEIALEVAYWKICKVDINKTAGVVNLNFLKFISMSTEILDLLSISIKSIFLPLLNNSPEIKAQIIEMTNSQIQKMEILINIILQETITVISTKFSAILCKQKKKDFVPKSQELLDQDTLPAIEIVNILNLIFEQSSKFLKGKNLQTFLTLIGEELYGLLLSHYSHFQVNSIGGVVVTKDIIGYQTAIEDWGVASLIDKFATLRELANLFTVQP
  percent bound: 10 to 20%
